We go through five molecules from article PMC4538837, “Structural basis for substrate recognition and processive cleavage mechanisms of the trimeric exonuclease PhoExo I”.

The target of data set [1] is C-terminal 4×His-tagged PhoExo I (PhoExo I-CHis) (Pyrococcus horikoshii OT3). The experiment in a line: SEC; gel filtration on Superdex 200 HR 10/30, 10 mM Tris HCl pH 8.0, 200 mM NaCl; size estimated against standard proteins.
Data set [2] deals with PhoExo I-CHis D80N mutant (Pyrococcus horikoshii OT3). The experiment in a line: crystal structure; PhoExo I-CHis D80N cocrystallised with 7-nt ssDNAs (poly-dA, poly-dC, poly-dT; poly-dT crystal also soaked with 0.1 M MgCl2); 0.1 M MES pH 5.6-5.7, 12-14% PEG6000, 1 M LiCl.
Data set [3] deals with PhoExo I (native, untagged) (Pyrococcus horikoshii OT3). The experiment in a line: crystal structure; substrate-free native PhoExo I, three crystal forms (crystals 1-3); sitting-drop vapour diffusion at 20°C; trimer in the asymmetric unit (crystals 1, 2) or by the crystallographic 3-fold axis (crystal 3).
Data set [4] has as its target T1, PhoExo I-CHis (wild type) (Pyrococcus horikoshii OT3, UniProt A0A060P168 1-229). The data set is described as follows: EMSA; 0.1 mM EDTA, no Mg2+; stronger than for the DNA of same sequence; EMSA: 25 mM Hepes-NaOH pH 7.5, 50 mM NaCl, 0.1 mM EDTA, 0.1 mg/ml BSA, 5 nM probe, 0-1600 nM trimer, 5 min 55 C, then 0.05% glutaraldehyde 10 min at room temperature; 7.5% native PAGE in TBE. To be noted: protein: recombinant; tags: C-terminal 4xHis; chain copies: 3; label: 5'-32P; single strand.

Data set [5] deals with T1, PhoExo I-CHis (wild type). The data set is described as follows: EMSA; 0.1 mM EDTA, no Mg2+; affinity lower than for RNA; EMSA: 25 mM Hepes-NaOH pH 7.5, 50 mM NaCl, 0.1 mM EDTA, 0.1 mg/ml BSA, 5 nM probe, 0-1600 nM trimer, 5 min 55 C, then 0.05% glutaraldehyde 10 min at room temperature; 7.5% native PAGE in TBE. Conditions: protein: recombinant; tags: C-terminal 4xHis; chain copies: 3; label: 5'-32P; single strand. Background: Mobility shift assays separate free from complexed probe on a gel.

T1 sequence (A0A060P168 entry or part of it): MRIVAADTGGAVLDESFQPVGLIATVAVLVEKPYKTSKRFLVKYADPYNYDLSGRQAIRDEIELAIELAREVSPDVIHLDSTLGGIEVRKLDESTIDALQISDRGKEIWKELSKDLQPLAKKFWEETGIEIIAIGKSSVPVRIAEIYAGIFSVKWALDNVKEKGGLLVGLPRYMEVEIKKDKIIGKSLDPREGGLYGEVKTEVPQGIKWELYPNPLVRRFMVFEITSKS

In the case of “C-terminal 4×His-tagged PhoExo I (PhoExo I-CHis) (enzyme)”, in data set [1], the stoichiometry N (in general, the number of molecules, sites or subunits per partner or assembly) was 3.
As for PhoExo I-CHis D80N mutant (enzyme), the stoichiometry N in data set [2] is 3.
Consider PhoExo I (native, untagged) (enzyme), for which the stoichiometry N in data set [3] amounted to 3.
Take AGCUAUGACCAUGAUUACGAAUUGCUU (ssRNA) [27-nt RNA]: the binding result in data set [4] is on record as “binds”.
Regarding AGCTATGACCATGATTACGAATTGCTT (ssDNA) [27-nt DNA], in data set [5], the binding result was “binds”.
